Assay results reported in publication PMC8129110.

What was measured:
[1] = molecular target: Ent1 ENTH domain (S. cerevisiae), wild type (UniProt Q12518); experiment: DLS; conditions: complexes assembled in the presence of PIP2; parent: est. 100; read off a plot
[2] = molecular target: Sla2 ANTH domain (S. cerevisiae), wild type; experiment: DLS; conditions: complexes assembled in the presence of PIP2; parent: est. 100; read off a plot

Sequence of UniProt Q12518 (Q12518 whole entry, looked up, the tested form may be a part): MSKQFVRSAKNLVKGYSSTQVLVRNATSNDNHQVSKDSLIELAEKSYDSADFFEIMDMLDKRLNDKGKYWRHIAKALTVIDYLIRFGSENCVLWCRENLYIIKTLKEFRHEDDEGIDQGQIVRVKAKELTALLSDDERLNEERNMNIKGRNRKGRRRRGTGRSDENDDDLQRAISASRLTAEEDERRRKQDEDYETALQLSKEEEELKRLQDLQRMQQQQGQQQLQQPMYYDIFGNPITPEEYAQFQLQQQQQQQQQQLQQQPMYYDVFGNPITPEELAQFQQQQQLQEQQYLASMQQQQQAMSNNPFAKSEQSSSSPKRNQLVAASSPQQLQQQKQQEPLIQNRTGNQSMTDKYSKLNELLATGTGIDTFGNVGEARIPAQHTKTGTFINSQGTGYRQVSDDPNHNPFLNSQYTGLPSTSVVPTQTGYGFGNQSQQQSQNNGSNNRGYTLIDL

Substance	response [1] [% mass]	response [2] [% mass]
Sla2 ANTH domain (S. cerevisiae), wild type Q9A; K10A	100	
Ent1 ENTH domain (S. cerevisiae), wild type (from UniProt Q12518) E107A		75
Sla2 ANTH domain (S. cerevisiae), wild type R3A; I4A; D37R	100	
Sla2 ANTH domain (S. cerevisiae), wild type R25A	32	
Ent1 ENTH domain (S. cerevisiae), wild type (from UniProt Q12518) E54A; D57A; D60A		100
Sla2 ANTH domain (S. cerevisiae), wild type K10A; K13A; K14A	28	
Sla2 ANTH domain (S. cerevisiae), wild type R3A	21	
Sla2 ANTH domain (S. cerevisiae), wild type R29A	27	
Ent1 ENTH domain (S. cerevisiae), wild type (from UniProt Q12518) Y100R		37
